One molecule from PMC6962038 (Science Advances, 2020) can be followed below.

The target of test [1] is APJ463 chimeric receptor reconstituted in nanodiscs (human, UniProt P35414, C325L | C326M). The experiment in a line: SPR. For orientation: Surface plasmon resonance follows binding to a sensor surface in real time, without labels.
The target in test [2] is wild-type human APJ (membrane preparation) (human, UniProt P35414). Kind of test: cell-based or functional assay.

B1: single-domain antibody (sdAb) antagonist JN241 (VHH)
VHH: QVQLVESGGGSVQSGGSLTLSCAASGSTYSSHCMGWFRQAPGKEREGVALMTRSRGTSYADSVKGRFTISQDNTKNILYLQMNSLKPEDTAMYYCAAVPRAGIESGAYCKWNMKDSGSWGQGTLVTVSS
In general, Kd refers to the constant that tells how readily two partners part at equilibrium. In the case of B1, the affinity in test [1], expressed as Kd, was 0.083 nM. Also, in test [2], the “IC50 of antagonism of the action of Apelin 13 on human APJ, cAMP assay” value amounted to 5.9 nM.
